# Measured values: article PMC4615758 (RNA Biology, 2014)
# B1: recombinant full size LARP6 purified from E. coli (natural protein)
# chain: MAQSGGEARPGPKTAVQIRVAIQEAEDVDELEDEEEGAETRGAGDPARYLSPGWGSASEEEPSRGHSGTTASGGENEREDLEQEWKPPDEELIKKLVDQIEFYFSDENLEKDAFLLKHVRRNKLGYVSVKLLTSFKKVKHLTRDWRTTAHALKYSVVLELNEDHRKVRRTTPVPLFPNENLPSKMLLVYDLYLSPKLWALATPQKNGRVQEKVMEHLLKLFGTFGVISSVRILKPGRELPPDIRRISSRYSQVGTQECAIVEFEEVEAAIKAHEFMITESQGKENMKAVLIGMKPPKKKPAKDKNHDEEPTASIHLNKSLNKRVEELQYMGDESSANSSSDPESNPTSPMAGRRHAATNKLSPSGHQNLFLSPNASPCTSPWSSPLAQRKGVSRKSPLAEEGRLNCSTSPEIFRKCMDYSSDSSVTPSGSPWVRRRRQAEMGTQEKSPGTSPLLSRKMQTADGLPVGVLRLPRGPDNTRGFHGHERSRACV
# Biological target: the molecule itself
# Experiment: native gel or EMSA
protein,measurement,value
B1,binding result,binds
